According to publication PMC9521185, “Self-assembly and label-free fluorescent aptasensor based on deoxyribonucleic acid intercalated dyes for detecting lactoferrin in milk powder”:

Molecular target: lactoferrin (LF) (bovine (milk), UniProt P24627 20-708)
Assay: PicoGreen dye-displacement fluorescence; PicoGreen; LF 100 nM and 1 uM; linear 20-500 nM, LOD 3 nM; Buffer, salt, pH and temperature not in the material; fluorescence ex 485 nm / em 528 nm, microplate reader
Conditions: protein: commercial; label: none (label-free; PicoGreen intercalated)

Sequence of lactoferrin (LF) (P24627 20-708): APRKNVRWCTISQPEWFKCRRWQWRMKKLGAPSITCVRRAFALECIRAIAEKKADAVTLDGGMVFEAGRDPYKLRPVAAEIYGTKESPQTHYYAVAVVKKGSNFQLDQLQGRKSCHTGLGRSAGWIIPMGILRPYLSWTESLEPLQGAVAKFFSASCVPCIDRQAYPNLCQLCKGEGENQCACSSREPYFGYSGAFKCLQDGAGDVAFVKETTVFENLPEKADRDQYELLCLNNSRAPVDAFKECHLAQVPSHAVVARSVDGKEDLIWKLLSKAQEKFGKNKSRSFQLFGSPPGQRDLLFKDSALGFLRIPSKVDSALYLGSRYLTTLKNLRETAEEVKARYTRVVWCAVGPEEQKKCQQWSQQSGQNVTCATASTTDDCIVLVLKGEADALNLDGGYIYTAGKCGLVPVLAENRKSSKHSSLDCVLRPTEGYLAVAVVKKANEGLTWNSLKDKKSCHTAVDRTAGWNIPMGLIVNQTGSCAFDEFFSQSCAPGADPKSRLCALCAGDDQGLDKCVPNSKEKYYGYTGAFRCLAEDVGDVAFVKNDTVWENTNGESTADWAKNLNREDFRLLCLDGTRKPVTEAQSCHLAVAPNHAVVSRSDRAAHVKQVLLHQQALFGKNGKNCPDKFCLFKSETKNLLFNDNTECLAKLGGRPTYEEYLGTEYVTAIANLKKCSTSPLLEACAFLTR

TGGTGCTGCCCCTAGTCTCCGGCTGATAGCTGCTTCTTGG (ssDNA) [LF aptamer]: binds.
